From article PMC9929448

How the values were obtained:
[1] = target: BMP-2 N102D mutant, mature form (human)
[2] = target: T1, Bone morphogenetic protein 2 (BMP-2), wild type, mature form (human)
T1 sequence (P12643 whole entry, looked up): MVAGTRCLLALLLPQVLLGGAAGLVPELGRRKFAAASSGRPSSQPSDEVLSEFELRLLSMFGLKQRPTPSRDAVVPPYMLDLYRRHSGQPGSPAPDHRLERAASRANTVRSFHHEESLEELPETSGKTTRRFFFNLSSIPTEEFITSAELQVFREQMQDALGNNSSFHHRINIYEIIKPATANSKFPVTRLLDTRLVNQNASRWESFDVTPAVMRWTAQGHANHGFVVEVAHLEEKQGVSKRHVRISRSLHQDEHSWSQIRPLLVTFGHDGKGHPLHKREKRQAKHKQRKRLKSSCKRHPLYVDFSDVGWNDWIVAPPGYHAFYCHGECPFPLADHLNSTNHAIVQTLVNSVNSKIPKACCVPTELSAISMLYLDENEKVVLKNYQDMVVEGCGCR

B1: Noggin (residues 28-232) (natural protein)
chain: MQHYLHIRPAPSDNLPLVDLIEHPDPIFDPKEKDLNETLLRSLLGGHYDPGFMATSPPEDRPGGGGGAAGGAEDLAELDQLLRQRPSGAMPSEIKGLEFSEGLAQGKKQRLSKKLRRKLQMWLWSQTFCPVLYAWNDLGSRFWPRYVKVGSCFSKRSCSVPEGMVCKPSKSVHLTVLRWRCQRRGGQRCGWIPIQYPIISECKCSC
modifications: biotin (biotinylated Noggin in the BLI experiments); methionine oxidation, mainly on the N-terminal methionine, in part of the sample
IC50 of Noggin (0.16 to 160 nM) on ALP activity and Alizarin Red staining (calcium deposition) of ATDC5 cells stimulated with 10 nM N102D BMP-2, day 7 [1]: 8 nM
IC50 of Noggin (0.16 to 160 nM) on ALP activity and Alizarin Red staining (calcium deposition) of ATDC5 cells stimulated with 10 nM WT BMP-2, day 7 [2]: 8 nM
